{"source": "patent US11241502B2", "about": "“Stable compositions of pegylated carfilzomib compounds” (AMGEN INC., priority 2017, dated 2022)", "key": {"[1]": {"test_system": "human colorectal adenocarcinoma cancer cell", "experiment": "mouse xenograft model of human colorectal adenocarcinoma", "settings": "once-weekly intravenous dosing; Example 13 200 mpk or 150 rising to 250 mpk after 3 week; CFZ-captisol 5 mpk; within 19 days of the first dose"}, "[2]": {"experiment": "reverse phase assay of main API peak (integrity of the molecule)", "format": "physicochemical", "procedure": "In order to identify stable formulations of PEG-CFZ, various formulations were made wherein the desired pegylated carfilzomib compound (API) was dissolve in experimental compositions of excipients, and the stability and quantity of the intact, non-degraded API was monitored and measured in the frozen state (−20° C. or below). Formulations of API was also prepared and tested to determine the ability of each exemplary formulation to provide adequate stability in the liquid state to be suitable for clinical and commercial administration. Here, these formulations were stored at least 8 hours at room temperature and 2 days at a temperatures ranging from 2-8° C. All formulations that were tested contained desired API compounds at 1 mg/mL concentrations.\nFor each formulation, the stability of the API was tested using three observable and/or measurable characteristics, as follows: • 1. Integrity of the molecule, as assessed by the reverse phase assay; • 2. Clarity of the solution, via visual assessment; and • 3. Concentration of the API material in the solution, as assessed by material recovery after centrifugation Results\nFIG. 2 illustrates results of similar measurements taken with the same formulations prepared with exemplary pegylated carfilzomib compound no. 39 instead of example 26. API material recovery is similarly shown in red and percent main API peak at To and T3, as measured by the same reverse phase assay, after storage at 25° C. for 3 days, is shown. Solutions for temperature and time storage conditions were generally prepared as follows—CFZ API was dissolved in formulation buffer by stirring at room temperature for a period of 5 minutes until complete dissolution. Samples were then sterile filtered using 0.2 micron PES filters under aseptic conditions into 3 cc vials, using a 1 ml fill. […]\nThe percent recovery of the exemplary pegylated carfilomib compounds were measured as a function of reverse phase assays for the peak(s) representing the active molecule/compound. The percent was determined based on the area under the curve, as described below. The reverse phase assays were conducted as follows—CFZ samples were analyzed by reverse phase using a Phenomenex Gemini C18, 50×4.6 mm, 3 micron particle size column with a 47 minute HPLC method. […] Main peak percentage was determined by taking Area Under the Curve integration. […] The concentration of each unknown sample was calculated using the equation of the trend-line generated from this calibration curve by plugging in the total integrated area.\nFor each exemplary formulation, the stability of the API was tested or measured by six different criteria or methods, as follows: • 1. Integrity of the molecule, as assessed by the reverse phase assay; • 2. […]"}, "[3]": {"settings": "in humans; cited from earlier work"}}, "data": [{"compound": "4-((4S,7S,10S,13S)-10-Benzyl-7-isobutyl-15-methyl-13-((R)-2-methyloxirane-2-carbonyl)-2,5,8,11-tetraoxo-4-phenethyl-3,6,9,12-tetraazahexadecyl)-4-(3-((1-(PEG20K-4-Arm)-1H-1,2,3-triazol-4-yl)methoxy)-4-(pivaloyloxy)benzyl)morpholin-4-ium Formate [Example 13]", "values": [{"measurement": "tumor growth compared to vehicle control", "setting": "[1]", "result": "significant attenuation of tumor growth"}]}, {"compound": "4-((4S,7S,10S,13S)-10-Benzyl-7-isobutyl-15-methyl-13-((R)-2-methyloxirane-2-carbonyl)-2,5,8,11-tetraoxo-4-phenethyl-3,6,9,12-tetraazahexadecyl)-4-(4-(isobutyryloxy)-3-((PEG5K-imino)methyl)benzyl)morpholin-4-ium Methanesulfonate [Example 26]", "values": [{"measurement": "main API peak loss (Table 6)", "setting": "[2]; 5kPEG-CFZ compound example 26, 25° C. (8 h), 4° C. (in 1 week) and −70° C. (in 2 weeks)", "result": "minimal main API peak loss"}, {"measurement": "main API peak loss, 4° C. Loss per 1 week", "setting": "[2]; A5Su formulation, API at 20 mg/mL, storage at 4° C.", "result": 0.0}, {"measurement": "main API peak loss, 25° C. loss per 8 hr", "setting": "[2]; A5Su formulation, API at 20 mg/mL, storage at 25° C.", "result": 0.0}, {"measurement": "main API peak loss, −70° C. loss per 2 weeks", "setting": "[2]; A5Su formulation, API at 20 mg/mL, storage at −70° C.", "result": 0.0}]}, {"compound": "CC(C)C[C@H](NC(=O)[C@H](CCc1ccccc1)NC(=O)CN1CCOCC1)C(=O)N[C@@H](Cc1ccccc1)C(=O)N[C@@H](CC(C)C)C(=O)[C@@]1(C)CO1", "note": "[Carfilzomib]", "values": [{"measurement": "half-life in-vivo", "setting": "[3]", "result": "≤ 1", "unit": "h"}]}]}
